Earlier results as cited in publication PMC5877629.

Target: infliximab
Assay: sedimentation equilibrium analytical ultracentrifugation

Kd: 21 µM
Substance: infliximab
